# Data published in IntAct's records for PubMed 19691494.
# B1: G-protein coupled receptor 15 (Pan troglodytes (Chimpanzee)), Q9BG77 (parent)
# chain: MDPEETSVYLDYYYATSPNSDIRETHSHVPYTSVFLPVFYTAVFLTGVLGNLVLMGALHFKPGSRRLIDIFIINLAASDFIFLVTLPLWVDKEASLGLWRTGSFLCKGSSYMISVNMHCSVLLLTCMSVDRYLAIVWPVVSRKFRRTDCAYVVCASIWFISCLLGLPTLLSRELTLIDDKPYCAEKKATPIKLIWSLVALIFTFFVPLLSIVTCYCCIARKLCAHYQQSGKHNKKLKKSIKIIFIVVAAFLVSWLPFNTFKFLAIVSGLRQEHYLPSAILQLGMEVSGPLAFANSCVNPFIYYIFDSYIRRAIVHCLCPCLKNYDFGSSTETSDSHLTKALSTFIHAEDFARRRKRSVSL
# Variants of: B1
# Details: with 1433b_human YWHAB
row,Variant,effect of a mutation on the interaction
1,S359A,disrupting interaction
